This is an account of results in PMC10653929, “Activities, substrate specificity, and genetic interactions of fission yeast Siw14, a cysteinyl-phosphatase-type inositol pyrophosphatase” (mBio, 2023).

In one data set the target is T1, SpSiw14; Siw14-(1-287) (Schizosaccharomyces pombe, UniProt Q9UUF3).
T1 construct: full length aa 1-287, E. coli BL21(DE3), His10Smt3 tag removed with Ulp1, monomer by gel filtration
T1 sequence (Q9UUF3 1-287): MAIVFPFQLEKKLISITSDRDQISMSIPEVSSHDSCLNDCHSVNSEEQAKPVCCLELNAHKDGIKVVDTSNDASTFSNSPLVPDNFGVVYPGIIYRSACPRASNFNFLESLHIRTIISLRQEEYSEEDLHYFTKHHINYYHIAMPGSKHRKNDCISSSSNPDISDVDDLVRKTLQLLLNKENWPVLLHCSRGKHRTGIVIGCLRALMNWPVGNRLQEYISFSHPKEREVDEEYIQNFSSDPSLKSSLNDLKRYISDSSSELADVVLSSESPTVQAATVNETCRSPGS
Briefly: inhibition of p-nitrophenylphosphate hydrolysis. The format is biochemical. The text has this:
inhibition of p-nitrophenylphosphate hydrolysis on SpSiw14; Siw14-(1-287) | Phosphate and sulfate elicited a similar concentration-dependent inhibition of SpSiw14 phosphatase activity with an IC50

Another data set deals with Cys403 (UniProt position 403, RPVIHCRAGVG). Nature of the data set: chemical modification. The conditions noted are these: cited from earlier work.
Substrate in data set [1]: O=P(O)(O)OP(=O)(O)O
Briefly: phosphate release by Malachite Green, Michaelis-Menten fit. The format is biochemical, Schizosaccharomyces pombe. The conditions noted are these: 25 mM Tris-acetate pH 5.0, 1 mM DTT, 37°C, no divalent cation, apparent kcat per PPi consumed.

Substrate in the data set “purified protein”: O=[N+]([O-])c1ccc(OP(=O)(O)O)cc1
Nature of the data set: purified protein. The format is biochemical, Schizosaccharomyces pombe. Conditions: 25 mM Tris-acetate pH 5.0, 1 mM DTT, 37°C, no divalent cation.

What is called IC50 is the midpoint of a concentration-inhibition curve. Lower therefore signals higher potency. A word on the pKa: it is the pH at which an ionisable group is half protonated. The Km is the concentration of substrate that gives half-maximal velocity. The kcat is the number of substrate molecules converted per active site and unit of time at saturation.

Consider `O=P(O)(O)O` [inorganic phosphate], for which the IC50 on SpSiw14; Siw14-(1-287) is about 5 mM.

For the molecule `O=S(=O)(O)O` [sulfate], the IC50 against SpSiw14; Siw14-(1-287) was about 5 mM.

Regarding “Yersinia protein tyrosine phosphatase (Yersinia PTPase, YopH/Yop51) (Yersinia sp. (species not stated in the article; inferred Yersinia enterocolitica))”, in the data set with Cys403, the pKa is recorded as 4.67.

B1: SpSiw14; Siw14-(1-287) (Schizosaccharomyces pombe 972h-) (protein)
chain: MAIVFPFQLEKKLISITSDRDQISMSIPEVSSHDSCLNDCHSVNSEEQAKPVCCLELNAHKDGIKVVDTSNDASTFSNSPLVPDNFGVVYPGIIYRSACPRASNFNFLESLHIRTIISLRQEEYSEEDLHYFTKHHINYYHIAMPGSKHRKNDCISSSSNPDISDVDDLVRKTLQLLLNKENWPVLLHCSRGKHRTGIVIGCLRALMNWPVGNRLQEYISFSHPKEREVDEEYIQNFSSDPSLKSSLNDLKRYISDSSSELADVVLSSESPTVQAATVNETCRSPGS
notes: full length aa 1-287, E. coli BL21(DE3), His10Smt3 tag removed with Ulp1, monomer by gel filtration
Turning to B1, in data set [1], the Km is 1130 ± 340 µM and the kcat is 0.443 ± 0.0817 s⁻¹. For the same molecule, in “purified protein”, the Michaelis constant (Km) came out at 1640 ± 180 µM and the catalytic constant (kcat) came out at 1.24 ± 0.045 s⁻¹.
